Laboratory results taken from the nanobody polyreactivity screen of Harvey et al. (2022).

Assay: yeast display, Sf9 membrane polyspecificity reagent, FACS + sequencing; frameworks hold sequencing errors
How it was run: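 Nanobodies from a synthetic yeast display library (Saccharomyces cerevisiae BJ5465), induced 36–48 hours with galactose, were stained 1 hour at 4 °C with 10% biotinylated, detergent-solubilized Sf9 membrane reagent, enriched on streptavidin microbeads, then FACS-sorted. Anti-HA (expression) and streptavidin (reagent binding) fluorescence set low and high (top ~1%) gates. Polyreactivity labels come from the gate of origin. Genes were colony-PCR amplified, MiSeq 2 × 250 sequenced and filtered by CDR length.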

Row | Sequence | polyreactivity (PSR sort gate)
1 | QVQLVESGGGLVQAGGSLRLSCAASGGTFRYNAMGWYRQAPGKERELVAAISSSGGSTYYADSVKGRFTISRDNAKNTVYLQMNSLKPEDTAVYYCAAKRRRYVELDYWGQVTQVTVSS | high polyreactivity
2 | QVQLVESGGGLVQAGGSLRLSCAASGRTFTFYAMGWYRQAPGKERELVATISYSGGRTYYADSVKGRFTISRDNAKNTVYLQMNSLKPEDTAVYYCATSVSGPWWKLYYWGQGTQVTVSS | low polyreactivity
3 | QVQLVESGGGLVQAGGSLRLSCAASGSTFGWYAMGWYRQAPGKERELVASISSGGSTNYADSVKGRFTISRDNAKNTVYLQMNSLKPEDTAVYYCAARGGYWWYRYGYWGQGTQVTVSS | high polyreactivity
4 | QVQLVESGGGLVQAGGSLRLSCAASGSTLSQYAMGLYRQAPGKERELVAAITKSGVRTYYPDSVKGRFTISRDNAKNTVYLQMNSLKREDTAVYYCAKATTKYIAPYDYWGQGTQVTVSS | high polyreactivity
5 | QVQLVESGGGLVQAGGSLRLSCAASGSIFGYYAMGWYRQAPGKERELVAAISSSGASTYYADSVKGRFTISRDNAKNTVYLQMNSLKPEDTAVNYCNAARRYPTRGGYWGQGTQVTVSS | high polyreactivity
6 | QVHLVESGGGLVQAGGSLRLSCAASGFIFSLYAMGWYRQAPGKERELVAAISKRGGSTNYADSVKGRFTISRDNAKNTVYLQMNSLKPEDTAVYYWAKARPGFLYDHWGQGTQVTVSS | high polyreactivity
7 | QVQLVESGGGLVQAGGSLRLSCAASGSTFSNYALGWYRPAPGKERELVAAITGRGGRTYYADSVKGRFTISRDNAKNTVYLQMNSLKPEDTAVYYCNADYWSRMDYWGQGTQVTVSS | high polyreactivity
8 | QVQLVESGGGLLQAGGSLRLSCAASGRTFWWNAMGWYRQAPGKERELVAVISYSGGSTYYADSVKGRFTISRDNAKNTVYLQMNSLKPEDTAVYYCAADLYSHTGYYWGQGTQVTVSS | high polyreactivity
9 | QVQLVESGGGLVQAGGSLRLSCAASGSIFDNAMGWYRQAPGKERELVASIDQSGGSTYYADSVKGRFTISRDNAKNTVYLQMNSLKPEDTAVYYCAADSFTGYPYEMDYWGQGTQVTVSS | low polyreactivity
10 | QVQLVESGGGLVQAGGSLRLSCAASGITFYLYALGWYRQAPGKERELVAAISSSGGRTYYADSVKGRFTISRDNAKNTVYLQMNSLKPEDTAVYYCAARRYGVPPTYDYWGQGTQVTVSS | high polyreactivity
11 | QVQRVESGGGLVQAGGSLRLSCAASGSIFKYYTMGLYRPAPGKERELVAYISSGGSTKYADSVKGRFTNSRDNAKNTVYLQMNSLKPEDTAVYYCAKRYYYFYPDYDFLGQGTQVTVSS | high polyreactivity
12 | QVQLVESGGGLVQAGGSLRLSCAASGSTFFINAMGWYRQEHGTEREFVASISYSGGSTYYADSVKGRFTISRDNAKNTVYLQMNSLKPEDTAVYYCNADVRVFLHYSKYNYWGQGTQVTVSS | low polyreactivity
13 | QVQLVESGGGIVQAGGSLRLSCAASGLTFWYYAMGGYRQAPGKVRELVARITRSGVGTYYADSVKGRFTISRDNAKNTVYLQMNSLKPEDTAVYYCAARYWVSGFRAGYYWGQGTQVTVSS | high polyreactivity
14 | QVQLVESGGGLVQAGGSLRLSCAASGFIFPWNAMGWYRQAPGKERELVAAISFSGGSTYYADSVKGRFTISRDNAKNTVYLQMNSLKPEDTAVYYCAKRTWDLRRTRHYYWGQGTQVTVSS | low polyreactivity
15 | QVQLVESGGGLVQAGGSLRLSCAASGRIFARYAMGWYRQAPGKETELVAAISRGGSTKYADSVKGRFTISRDNAKNTVYLQMNSLNPVDTAVYYCARQLWGSPYGAYYAGDYWGQGTQVTVSS | low polyreactivity
16 | EVQLVESGGGLVQPGGSLRLSCAASGYIYSRYRMGWYRQAPGKGREFVAAISGGSSTNYADSVKGRFTISRDNSTNTVYLQMNSLRAEDTAVYYCAAYKIDSDPRVYWGQGTQVTVSS | low polyreactivity
17 | QVQLVESGGGLVQAGGSLRLTCAASGRIFNAYAMGWYRQAPGKEREFVAAISYTVGSTYYADTVKGRFTISRDNAKITVNLQMISLKPEDTAVYYCAATGWDYYGGYDYWGQGTQVTVSS | high polyreactivity
18 | QVQLVESGGGLVQAGGSHRLSCAASGFIFYYYTRGWYRQAPGKERELVAAISRGRGSTYYADSVKGRFTISRDNAKNTVYLQMNSLKPEDTAVYYCARTDRRLGAHQGDYWGQGTQVTVSS | high polyreactivity
19 | QVQLVESGGGLVQAGGSLRLSCAASGSTFYAYAMGWYRQAPGKERELVAAIRRSTGRTYYADSVKGRFTISRDNAKNTVYLQMNSLKPEDTAVYYCAASYPVDYYDMYYWGQGTQVTVSS | high polyreactivity
20 | QVQLVESGGGLVQAGGSLRLSCAASGFIFTRNAMGWYRQAPGKERELVAAISASGGRTYYADSVKGRFTISRDNAKNTVYLQMNSLKPEDTAVYYCNTGIYVARSTYGRFKYDYWGQGTQVTVSS | high polyreactivity
21 | QVQLVESGGGLVQAGGSLRLSCAASGSIILPNTMGWYRQAPGKERELVASISWNGGRTYYADSVKGRFTISRDNAKNTVYLQMNSLKPEDTAVYYCNADFRYPRVRYDYWGQGTQVTVSS | low polyreactivity
22 | QVQLVESGGGLVQAGGSLRLSCAASGSTFTRNAMGWYRQAPGKERELVARISRSGGSTYYADSVKGRFTISRDNAKNSVYLQMNSLKPEDTAVYDCNKDWYPRYPYVKGERDYWGEGTQVTVSS | high polyreactivity

Row | Sequence | polyreactivity (PSR sort gate)
23 | QVQLVESVGGLVQAGGSLRLSCAATRSIFKIMRWYRQAPGKERELVAAISSSVGNTYYADSVKGRFTISRDNAKNTVYLQMNSLKPEDTAVYYCAAQSKYYQYYSWGQGTQVTVSS | high polyreactivity
24 | QVQLVESGGGLVQAGGSLRLSCAASGRIFYYNTMGWYRQAPGKERELVAAITRSGGSTYYADSVKGRFTISRDNAKNTVYLQMNSLKPEDTAVYYCAARSTHPGSVGYWGQGTQVTVSS | high polyreactivity
25 | QVHLVESGGGLVQAGGSLRLSCAASGSTFGLNAMGWYRQAPGKERELVAAITRSDITNYADSVKGRFTISRDNAKNTVYLQMNSLKPEDTAVYYCNKTPDRHRRYFGYGYWGQGTQVTVSS | low polyreactivity
26 | QVQLVESGGGLVQAGGSLRLSCAASGFTFRGYAMGWYRQAPGKERELVAVINTDGSTNYADSVKGRFTISRDNAKNTVYLQMNSLKPEDTAVYYCNAVRSSIGSDNDYWGQGTQVTVSS | low polyreactivity
27 | QVQLVESGGGLVQAGCTLRLSSAASGRIYRYNVMGWSRQAPGKESELVAGISSGGSTNYADSVKGRFTISRDNAKNTVYLQMTSLKPEDTAVYFCSKRWLNAKPYGQAMYSWGQGTQVTVSS | high polyreactivity
28 | QVQLLESGGGLVKAGGSLRLSCAPYGSIFYGYAMGWYRPAPGKERELVAAITRSGGSTYYADSVKGRFTITRFNAKNTVYLQMNSLKPEDTAVYYCAAGWRSVSVRYYGPSDYWGQGTQVTVSS | low polyreactivity
29 | QVQLVESGGGLVQAGGSLRLSCAASGFIFATNAMGWYRQAPGKERELGASISSGDNTNYADSVKGRFTISRDNAKNTVYLQMNSLKPEHTAVYYCAAANKGPDQADYHYDQWGEYEYWGQGTQVTVSS | low polyreactivity
30 | QVQLVESGGGLVQAGGSLRLSCAASGSIFRYNAMGWYRQEPGKERELVASINGGGGTYYPDSVKGRFTISRDNAKNTVYLQMNSLKPEDTAVLYCNTVVNSFSYASRFNFYYWGQGSQVTVSS | high polyreactivity
31 | QVQLVESGGGLVQAGGSLRLSCAASGSSFVRNGMGWYRQAPGKERELVASIRGSGSRTYYADSVKGRFTISRDNAKNTVYLQMNSLKPEDTAVYYCAAGYWRYYHYPPASGYWGQGTQVTVSS | high polyreactivity
32 | QVQLVESVGGLVQAGGSLRLSCAASGSTIDGYAMGWYRQAPGKEREFVAAISFSSASTYYADSVKGRFTISRDNAKNTVYLQMNSLKPEDTAVYYCNADFFDSGGSIEYDSWGQGTQVTVSS | low polyreactivity
33 | QVQLQERGGGLVQAGGRLRLSCMASGSILGDRMSWYRQAPGKEHELVATIYDGGITYYADSMKVRFTISRDNANNTVDLQMKSQRPEDTAVYFCGASFEGYRYHVFCGQGTQVTVSS | low polyreactivity
34 | QVQLVESGGGLVQAGGSLRLSCAASGSTFWSYAMGWYRPAPGKERELVAAITSGGRTYYADSVKGRFTISRDNAKNTVYLQMNSLKPEDTAVYYCAAEGSVGLYGLIMHYWGQGTQVTVSS | high polyreactivity
35 | QVQLVESGGGLVQAGGSLRLSCAASGRTLIYYAMGWYRQAPGKERELVAAISSSGTSTYYADSVKGRFTISRDNAKNTVYLQMNSLKPEDTAVYYCAADGRTLGRRYYYWGQGTQVTVSS | high polyreactivity
36 | QVQLVESGGGLVQAGGSLRLSCAASGRTFPLYAMGWYRQAPGKERELVASITTDSSTYYADSVKGLFTISRDNAKYTVYLQMNSLKPEDTAVYYCAATTIPYPYTEFDYWGQGTQVTVSS | low polyreactivity
37 | QVQLVESGGGLVQAGGSLRVSCAASGFTFGPNAMGWYSQAPGKERELVAAISQSGGSTYADSEKGRFTISRDNAKNTDYLHMNSLKPEDTAVYYCAAEFPDYYWWYEYWGQGTQVTVSS | high polyreactivity
38 | QVQLVESGGGLVQAGGSLRLSCAASGRTFRRYAMGWYRQAPGKERELVAAISRSGGSTSYADSVKGRFTISRDNAKNTVYLQMKSLKPEDTAVYYCAVEVASYDRRPSEYYWGQGTQVTVSS | high polyreactivity
39 | QVQLVQSGGGLVQAGGSLRLSCAASQNAMGWYRQAPGKERELVAAISKGGGRTYYADSVKGRFTISRDNAKNTVYLQMNSLKPEDTAVYYCNARYYSSQDADRHEYWGQGTQVTVSS | high polyreactivity
40 | EVQLVESGGGLVQAGGSLRLSCAASGRIFVHYAMGWYRQAPGKERELVAAITSGSSTNYADSVKGRFTISRDNAKNTVYLQMNSLKPEDTAVYYCAADYSVHRVRDRWFDYWGQGTQVTVSS | low polyreactivity
41 | QVQLVESGGGLVQAGGSLRLSCAASGFSFRYYTMGWYRPAPGKERELVARITWSGRITDYADSVKGRFTISRDNPKNTVYLQMNSLKPEDTAVSYCNAERRWAAYDYCGQGTQVTVSS | high polyreactivity
42 | QVQLVESGGCLVQAGGSLRLSCAASGSIFYWYAMGWFRQAPGKARELVAAITWSGVSTYYADSVKGRFTISRDNAKNTVDLQMNSLKREDTAVYYCAALVFGYSVFPYSYWGQGTQVTVSS | high polyreactivity
43 | QVQLVESGAGLVQAGGSLRLSCAASGPILRTYAKGWYRQAPGKERELVAAISRSGGSSYYADSVKGRFTLSRDNAKNTVYLLMNSLKPEDTAVYYCNKAYGGRGYKYEYWGQGSQVTVSS | high polyreactivity
